Results published in patent US20240383993A1 (LANOVA MEDICINES, published 2024).
Numbering of substitutions follows the chain as printed. Numbers in names are those of the source.

B1: VV02-1LP-263 huNb_2_3 (Fc fusion, not shown: a dimerising Fc or GST)
VHH: EVQLVESGGGLVQPGGSLRLSCAASGFTFSSSAMSWARQAPGKGFEWVSGIYSGGSTYYTESVKDRFTISRDNAKNTVYLQMNSLKPEDTAVYYCATWGTLRFGVWAEYDHWGQGTLVTVSS
notes: detection by anti-human Fc
B2: VV02-1LP-263 huNb_1_3 (Fc fusion, not shown: a dimerising Fc or GST)
VHH: B1 VHH with V5L, A40T, A74S, L117Q
notes: detection by anti-human Fc
B3: VV02-1LP-263 huNb_1_2 (Fc fusion, not shown: a dimerising Fc or GST)
VHH: B1 VHH with V5L, F45L, A74S
notes: detection by anti-human Fc
B4: VV02-1LP-263 huNb_3_2 (Fc fusion, not shown: a dimerising Fc or GST)
VHH: B1 VHH with E1Q, Q13K, T77S, V78L, K86R, L117Q
notes: detection by anti-human Fc
B5: VV02-1LP-263 huNb_2_2 (Fc fusion, not shown: a dimerising Fc or GST)
VHH: B1 VHH with F45L, V78L, K86R
notes: detection by anti-human Fc
B6: VV02-1LP-263 huNb_3_3 (Fc fusion)
VHH: B1 VHH with E1Q, T77S, L117Q
notes: detection by anti-human Fc; not shown: Fc part, implied only by the anti-human Fc secondary antibody
B7: VV02-1LP-317 (Fc fusion, not shown: a dimerising Fc or GST; small tags and cut ends)
VHH: EVDLVESGGGLVQPGGSLRLSCAASGFTFSRSAMSWARQAPGKGFEWVSGIYSGGSTYYVDSVEGRFTISRDNAKNTVYLQMNSLKPEDTAVYYCATWGSQQIGVWHEDDYWGQGTQVTVSS
notes: Llama nanobody tested as fusion with human IgG1 Fc (N297A)
B8: VV02-1SP (1)-168 (Fc fusion, not shown: a dimerising Fc or GST; small tags and cut ends)
VHH: QVQLVESGGGLVQPGGSLRLSCAASGFTFSSYAMSWARQAPGKDFEWVSYIYSDGNTYYADSVKGRFTISRDNAKNTVYLQMNSLKPEDTAVYYCATWHTLRVGVWDEYDYWGQGTQVTVSS
notes: as for B7
B9: VV02-1LP-263 (Fc fusion)
VHH: B1 VHH with A40T, G54D, E61D, L117Q
notes: Llama nanobody tested as fusion with human IgG1 Fc (N297A); not shown: Human IgG1 Fc fragment with N297A, fused at the C-terminus of the VHH
B10: VV02-1SP (1)-73 (Fc fusion, not shown: a dimerising Fc or GST; small tags and cut ends)
VHH: EVDLVESGGGLVQPGGSLRLSCAVSGFTFSNSAMSWARQAPGKEFEWVSSIYSDGKTYYVDSVKGRFTISRDNAKNTVYLQMSSLKPEDTAVYYCATWKTLRVGVWDESDYWGQGTQVTVSS
notes: as for B7
B11: VV02-2LP-13 (Fc fusion)
VHH: AVQLVESGGGLVQPGGSLRLSCAASGFTFSSYAMSWARQVPGKGFEWVAYIYSDGSTYYADSVKGRFTISRDNAKDTVYLHMNSLKFEDMAVYYCATWRSQQVGRWDEYDHWGQGTQVTVSS
notes: Llama nanobody tested as fusion with human IgG1 Fc (N297A); not shown: Human IgG1 Fc fragment with N297A, plus the hinge or linker joining it to the nanobody
B12: VV02-1SP (1)-358 (Fc fusion, not shown: a dimerising Fc or GST; small tags and cut ends)
VHH: B11 VHH with A1E, R19M, L20I, Y32S, E108K, H111Y
notes: as for B7
B13: VV02-3LP-83 (Fc fusion)
VHH: B11 VHH with A1E, Q3D, S30R
notes: as for B11
B14: VV02-3LP-142 (Fc fusion)
VHH: B11 VHH with P14R, R19K, A23V, A24G, T28D, S31D, Y32H
notes: as for B11
B15: VV02-1SP (1)-55 (Fc fusion, not shown: a dimerising Fc or GST; small tags and cut ends)
VHH: B11 VHH with A1E, Y32S, H111Y, T116I
notes: as for B7
B16: VV02-1LP-417 (Fc fusion)
VHH: QLQLVESGGGLVQPGGSLRLSCAASGFALDYSAIGWFRQAPGKEREGVLCISSSGDVTIYADSVKGRFTISRDNAKNTVYLQMNSLKPEDTAVYYCVAPRICSTYSSDDYWGQGTQVTVSS
notes: as for B11
B17: VV02-1LP-422 (Fc fusion, not shown: a dimerising Fc or GST; small tags and cut ends)
VHH: B16 VHH with A28T, D30A, Y31D, S32Y
notes: as for B7
B18: VV02-1LP-288 (Fc fusion, not shown: a dimerising Fc or GST; small tags and cut ends)
VHH: B16 VHH with Q1E, L2V, L4V, F27S, A28S
notes: as for B7
B19: VV02-1LP-238 (Fc fusion, not shown: a dimerising Fc or GST; small tags and cut ends)
VHH: B16 VHH with L2V, P14A, S17A, A28T
notes: as for B7
B20: VV02-1SP (1)-73 huNb_3_1 (Fc fusion)
VHH: EVQLVESGGGLVQPGGSLRLSCAASGFTFSSSAMSWARQAPGKGFEWVASIYSSGKTYYVESVKGRFTISRDNAKNSLYLQMNSLRAEDTAVYYCARWKTLRVGVWDESDYWGQGTLVTVSS
notes: as for B6
B21: VV02-1SP (1)-73 huNb_2_2 (Fc fusion)
VHH: B20 VHH with V12I, G44E, A49S, S77T, N83S, R97T, L117Q
notes: as for B6
B22: VV02-1SP (1)-73 huNb_3_2 (Fc fusion)
VHH: B20 VHH with A49S, N83S, R97T
notes: detection by anti-human Fc; not shown: Human Fc part, implied only by the anti-human Fc secondary antibody
B23: VV02-1SP (1)-73 huNb_1_2 (Fc fusion)
VHH: B20 VHH with V5L, G44E, F45L, A49S, S77T, N83S, R97T
notes: as for B6
B24: VV02-1SP (1)-73 huNb_3_3 (Fc fusion)
VHH: B10 VHH with D3Q, N31S, D54S, D61E, T77S, K86R, Q117L
notes: as for B22
B25: VV02-1SP (1)-73 huNb_1_3 (Fc fusion)
VHH: B10 VHH with N31S, D54S, D61E, K86R, Q117L
notes: as for B6
B26: VV02-1SP (1)-73 huNb_2_3 (Fc fusion)
VHH: B10 VHH with D3Q, N31S, D54S, D61E, K86R
notes: as for B6

Biological target: T1, cynomolgus 4-1BB overexpressed on CHO-K1 cells (cynomolgus, UniProt A9YYE7 24-254)
T1 construct: whole, on cells; also called CHO-K1/Cyno-41BB; cell surface cyno 4-1BB
Experiment: flow cytometry on CHO-K1/Cyno-41BB cells, anti-human Fc-Alexa Fluor 633
Method: (§1) To evaluate the antigen binding property in a cell-based setting, the 4-1BB humanized nanobodies were analyzed for their binding to 4-1BB overexpressed on CHO-K1 cells by FACS.
(§2) Briefly, CHO-K1 cells overexpressing human 4-1BB or cynomolgus 4-1BB were incubated with the serial diluted anti-4-1BB nanobodies for 30 min at 4° C. Then, the cells were incubated with Alexa Fluor 633-conjugated anti-human Fc secondary antibody. Binding was measured with an Agilent flow cytometer.

T1 sequence (A9YYE7 entry or part of it): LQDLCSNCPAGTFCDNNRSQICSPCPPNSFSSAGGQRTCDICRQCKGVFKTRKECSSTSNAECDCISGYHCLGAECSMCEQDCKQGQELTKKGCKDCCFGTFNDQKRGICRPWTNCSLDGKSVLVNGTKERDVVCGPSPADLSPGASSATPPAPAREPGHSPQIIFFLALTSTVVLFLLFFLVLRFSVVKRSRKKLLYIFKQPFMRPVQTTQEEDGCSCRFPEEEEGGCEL

Binder	EC50 [nM]	Max (MFI)
B1	0.37	130000
B2	0.33	134000
B3	0.69	99600
B4	0.7	128000
B5	0.64	86400
B6	0.7	149000

Biological target: T2, His-tagged human 4-1BB protein (human, UniProt Q07011 24-186)
T2 construct: Coated on ELISA plates at 2 µg/ml; also called hu4-1BB; soluble human 4-1BB; not shown: His tag
Experiment: ELISA, coated His-tagged 4-1BB, anti-human IgG-HRP
Method: (§3) His-tagged 4-1BB was coated at 2 μg/ml overnight and then blocked by 2% BSA in PBS. Serially diluted anti-4-1BB nanobodies were incubated with the coated antigen for 1h at room temperature with a reference antibody “Ref mAb”. The resulting plates were washed with PBS/T and incubated with goat anti-human IgG-HRP for 1 h at room temperature. The plates were developed with TMB substrate and analyzed by spectrophotometer at OD 450 nm.

Binder	EC50 [nM]
B7	> 30
B8	> 30
B9	> 30
B10	> 30
B11	> 30
B12	> 30
B13	> 30
B14	> 30
B15	> 30
B16	11.1
B17	0.37
B18	> 30
B19	9.12

Biological target: T3, His-tagged cynomolgus 4-1BB protein (cynomolgus, UniProt A9YYE7 24-186)
T3 construct: Coated on ELISA plates at 2 µg/ml; also called Cyno 4-1BB; soluble cynomolgus 4-1BB; not shown: His tag
T3 sequence: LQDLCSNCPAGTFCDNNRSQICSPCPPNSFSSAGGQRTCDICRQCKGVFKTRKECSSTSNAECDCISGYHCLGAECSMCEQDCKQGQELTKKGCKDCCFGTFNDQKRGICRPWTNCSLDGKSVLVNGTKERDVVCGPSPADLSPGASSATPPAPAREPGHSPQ
Experiment: ELISA, coated His-tagged 4-1BB, anti-human IgG-HRP
Method: as §3

Binder	EC50 [nM]
B7	29.3
B8	0.06
B9	0.04
B10	0.11
B11	4.19
B12	0.11
B13	2.03
B14	18.2
B15	1.87
B17	6.94
B19	26.5

Biological target: T4, human 4-1BB expressed on cells (human, UniProt Q07011 24-255)
Experiment: cell-based or functional assay

T4 sequence (Q07011 24-255): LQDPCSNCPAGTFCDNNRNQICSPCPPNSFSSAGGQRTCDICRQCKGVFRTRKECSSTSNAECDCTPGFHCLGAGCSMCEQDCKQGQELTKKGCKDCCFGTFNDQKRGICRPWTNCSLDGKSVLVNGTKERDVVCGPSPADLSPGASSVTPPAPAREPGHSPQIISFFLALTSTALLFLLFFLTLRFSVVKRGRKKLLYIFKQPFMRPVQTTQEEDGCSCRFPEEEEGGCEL

Binder	EC50 (nM) in Jurkat-41BB NFκB reporter assay [nM]
B7	0.031
B8	0.002
B9	0.017
B10	0.01
B11	0.036
B12	0.004
B13	0.014
B14	0.014
B15	0.023
B16	0.081
B17	0.013
B18	0.052
B19	0.008

Biological target: T4, human 4-1BB expressed on cells
Experiment: flow cytometry on CHO-K1/hu4-1BB cells, anti-human Fc-Alexa Fluor 633
Method: as §1, §2

Binder	EC50 [nM]	Max (MFI)
B20	27.4	3700
B1	0.11	39100
B2	0.11	42100
B3	0.17	23500
B4	0.14	38000
B5	0.19	23400
B6	0.12	40300
B21	0.37	9270
B22	0.52	8560
B23	0.8	5240
B24	0.66	9630
B25	0.61	–
B26	0.49	–

Biological target: T4, human 4-1BB expressed on cells
Experiment: flow cytometry competition with biotinylated human 4-1BB ligand on CHO-K1/human 4-1BB cells
Method: CHO-K1 cells overexpressing human 4-1BB were incubated with biotinylated human 4-1BB ligand (0.3 μg/ml) in the presence of serial diluted anti-41BB nanobodies for 1 h at 4° C. with Ref mAb as the reference antibody. Then, cells were incubated with Alexa Fluor 633-conjugated streptavidin. Binding was measured with an Agilent flow cytometer. As shown in FIG. 2 and Table 3, all of the tested nanobodies could block 4-1BB ligand binding to 4-1BB in a concentration-dependent manner while Ref mAb had no such effect.

Binder	IC50 [nM]
B7	1.42
B8	0.387
B9	0.566
B10	0.573
B11	0.995
B12	0.988
B13	0.682
B14	0.923
B15	0.573
B16	2.05
B17	1.48
B18	2.57
B19	1.88
